# Experimental data reported in patent publication US20140303084.
# Positions count from the first letter of the chain named.
# Tests used:
# [1] = system: T1, RRAPGKLT-Lys-LASY-Glu-WLFWTGIA-COOH
# T1 sequence: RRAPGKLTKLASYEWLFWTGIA
# [2] = system: T2, RR-MeAla-PGKLTCLASYCWLFWTGIA
# T2 sequence: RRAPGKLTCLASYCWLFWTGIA
# [3] = system: T3, PRIRTVGPGSRSASGKLSCLASYCWLFWTGIA
# T3 sequence: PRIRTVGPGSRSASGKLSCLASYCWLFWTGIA
# RRAPGKLTCLASYCWlFWTGIA = system: T4, RRAPGKLTCLASYCWlFWTGIA
# T4 sequence: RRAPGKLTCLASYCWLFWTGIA
# [4] = system: T5, RRAPGKLQCLASYCWLFWTG-Cha-A
# T5 sequence: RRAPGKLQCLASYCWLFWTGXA
# [5] = system: T6, RRAPGK-MeLeu-TCLASYCWLFWTGIA
# T6 sequence: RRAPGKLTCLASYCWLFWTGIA
# KLTCLASYcWLF = system: T7, KLTCLASYcWLF
# T7 sequence: KLTCLASYCWLF
# [6] = system: T8, SKQGRPISSDrRAAGKLTCLASYCWLFWTGIA
# T8 sequence: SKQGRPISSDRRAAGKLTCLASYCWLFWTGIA
# R-k-MeLeu-TCLASYCWLF = system: T9, R-k-MeLeu-TCLASYCWLF
# T9 sequence: RKLTCLASYCWLF
# rRAPGKSTCLASYCWLFWTGIA = system: T10, rRAPGKSTCLASYCWLFWTGIA
# T10 sequence: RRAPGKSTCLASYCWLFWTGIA
# [7] = system: T11, PRIRTVGPGSRSASGKLTCLASYCWLFLTGIA
# T11 sequence: T3 sequence with S18T, W28L
# [8] = system: T12, RRAPGKCTALASYAWCFWTGIA-COOH
# T12 sequence: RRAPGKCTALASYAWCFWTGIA
# [9] = system: T13, Pra-PEG4-PRIrTVGPGSrSASGKSTCLASYCWLFWTGIA
# T13 sequence: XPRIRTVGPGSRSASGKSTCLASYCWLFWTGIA
# KLTCLASYCQLV = system: T14, KLTCLASYCQLV
# T14 sequence: KLTCLASYCQLV
# [10] = system: T15, TALSRGLVTM RTAPD KLTCLASYCWLFWTGIA
# T15 sequence: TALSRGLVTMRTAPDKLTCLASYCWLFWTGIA
# GVEDRQLTCLASSCWVFSRHSV = system: T16, GVEDRQLTCLASSCWVFSRHSV
# T16 sequence: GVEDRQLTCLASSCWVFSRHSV
# K-k-MeLeu-TCLASYCWLF = system: T17, K-k-MeLeu-TCLASYCWLF
# T17 sequence: KKLTCLASYCWLF
# [11] = system: T18, GSVRRALFVA ARAPA KLTCLASYCWLFWTGIA
# T18 sequence: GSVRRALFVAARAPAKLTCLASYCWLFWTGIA
# KLTCLASYCWYF = system: T19, KLTCLASYCWYF
# T19 sequence: KLTCLASYCWYF
# LTWREKLACLASYCWLFLWGAP = system: T20, LTWREKLACLASYCWLFLWGAP
# T20 sequence: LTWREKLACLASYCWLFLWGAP
# KLQCLASYCWLFWTGIA = system: T21, KLQCLASYCWLFWTGIA
# T21 sequence: KLQCLASYCWLFWTGIA
# [12] = system: T22, RRAPGKLTCLASYCWLF WTGLA PGRGQGGVAG
# T22 sequence: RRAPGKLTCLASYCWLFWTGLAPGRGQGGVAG
# [13] = system: T23, TLWPWGGQGG RNAPG KLTCLASYCWLFWTGIA
# T23 sequence: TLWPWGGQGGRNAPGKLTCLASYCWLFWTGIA
# [14] = system: T24, RPRSSAHDRP RRAAG KLTCLASYCWLFWTGIA
# T24 sequence: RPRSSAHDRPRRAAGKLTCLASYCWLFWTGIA
# [15] = system: T25, SKQGRPISSDrRAAGKSTCLASYCWLFWTGIA
# T25 sequence: T8 sequence with L17S
# [16] = system: T26, RRAPGKLTCLASYCK(PEG2-Biotin)LFWTGIA
# T26 sequence: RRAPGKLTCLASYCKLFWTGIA
# [17] = system: T27, RRAPGKLTCK(PEG2-Biotin)ASYCWLFWTGIA
# T27 sequence: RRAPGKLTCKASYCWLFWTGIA
# PGKLQCLASYCWLFWTGIA = system: T28, PGKLQCLASYCWLFWTGIA
# T28 sequence: PGKLQCLASYCWLFWTGIA
# KLT-Glu-LASY-Dab-WLF = system: T29, KLT-Glu-LASY-Dab-WLF
# T29 sequence: KLTELASYXWLF
# [18] = system: T30, RRAPGKCTALASYCWLFWTGIA-COOH
# T30 sequence: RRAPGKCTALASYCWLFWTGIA
# QAKMLKLTCLASYCWLFWVTRS = system: T31, QAKMLKLTCLASYCWLFWVTRS
# T31 sequence: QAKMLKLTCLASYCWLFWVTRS
# [19] = system: T32, SKQARPISPDrRAAGKLTCLASYCWLFWTGIA
# T32 sequence: T8 sequence with G4A, S9P
# [20] = system: T33, RRAPGKLTCLASYCWLF WTTWT TAPTTPPLTT
# T33 sequence: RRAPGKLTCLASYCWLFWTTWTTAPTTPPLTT
# [21] = system: T34, rRAPGKLTCLASYCWLFWTGIA-PEG4-C(N-PEG5k maleimide)
# T34 sequence: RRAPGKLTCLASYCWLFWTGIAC
# [22] = system: T35, RRAPGKLTCLASYCWLF WTTYA SYATKPADTT
# T35 sequence: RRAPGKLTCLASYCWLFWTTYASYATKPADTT
# [23] = system: T36, RRAPGKLTCLASYCWLFWK(PEG2-Biotin)GIA
# T36 sequence: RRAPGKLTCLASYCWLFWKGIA
# compound 23 = system: T37, compound 23
# T37 sequence: T3 sequence with S18T
# [24] = system: T38, KLLKLLLKLLLKLLK-k-MeLeu-TCLASYCWLF
# T38 sequence: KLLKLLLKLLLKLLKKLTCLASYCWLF
# RQLWNKLTCLASYCALIGLSGT = system: T39, RQLWNKLTCLASYCALIGLSGT
# T39 sequence: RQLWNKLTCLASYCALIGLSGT
# [25] = system: T40, PTDTGPVISG LRAPG KLTCLASYCWLFWTGIA
# T40 sequence: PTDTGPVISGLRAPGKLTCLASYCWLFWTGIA
# (PEG)27-KLTCLASYCWLF = system: T41, (PEG)27-KLTCLASYCWLF
# T41 sequence: KLTCLASYCWLF
# MeLys-LTCLASYCWLF = system: T42, MeLys-LTCLASYCWLF
# T42 sequence: KLTCLASYCWLF
# KLTCLASYCFLF = system: T43, KLTCLASYCFLF
# T43 sequence: KLTCLASYCFLF
# RRKPGKLQCLASYCWLFWTGIA = system: T44, RRKPGKLQCLASYCWLFWTGIA
# T44 sequence: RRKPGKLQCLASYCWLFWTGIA
# [26] = system: T45, SAQGRPISPDrRAAGKLTCLASYCWLFWTGIA
# T45 sequence: T8 sequence with K2A, S9P
# [27] = system: T46, RRAPGKLTCL-MeAla-SYCWLFWTGIA
# T46 sequence: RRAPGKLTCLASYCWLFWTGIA
# [28] = system: T47, RRAPGCLTALASYCWLFWTGIA-COOH
# T47 sequence: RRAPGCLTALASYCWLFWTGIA
# [29] = system: T48, PRIRTVSPGSRSASGKLTCLASYCWLFWTGIA
# T48 sequence: T3 sequence with G7S, S18T
substance,measurement,setting,value
human Factor IXa,"Vmax, FXa generation assay; (++) means 1-2",[1],(++)
same,"Vmax, FXa generation assay",[2],> 3
same,"Vmax, FXa generation assay",[3],> 3
same,"Vmax, FXa generation assay; (++) means 1-2",RRAPGKLTCLASYCWlFWTGIA,(++)
same,"Vmax, FXa generation assay",[4],> 3
same,"Vmax, FXa generation assay; (++) means 1-2",[5],(++)
same,"Vmax, FXa generation assay",KLTCLASYcWLF,> 3
same,"Vmax, FXa generation assay",[6],> 3
same,"Vmax, FXa generation assay",R-k-MeLeu-TCLASYCWLF,> 3
same,"Vmax, FXa generation assay; (++) means 1-2",rRAPGKSTCLASYCWLFWTGIA,(++)
same,"Vmax, FXa generation assay",[7],> 3
same,"Vmax, FXa generation assay",[8],> 2
same,"Vmax, FXa generation assay; (++) means 1-2",[9],(++)
same,"Vmax, FXa generation assay",KLTCLASYCQLV,> 2
same,"Vmax, FXa generation assay; (++) means 1-2",[10],(++)
same,"Vmax, FXa generation assay; (++) means 1-2",GVEDRQLTCLASSCWVFSRHSV,(++)
same,"Vmax, FXa generation assay",K-k-MeLeu-TCLASYCWLF,> 3
same,"Vmax, FXa generation assay",[11],> 2
same,"Vmax, FXa generation assay",KLTCLASYCWYF,> 2
same,"Vmax, FXa generation assay; (++) means 1-2",LTWREKLACLASYCWLFLWGAP,(++)
same,"Vmax, FXa generation assay",KLQCLASYCWLFWTGIA,> 2
same,"Vmax, FXa generation assay",[12],> 3
same,"Vmax, FXa generation assay",[13],> 2
same,"Vmax, FXa generation assay",[14],> 3
same,"Vmax, FXa generation assay",[15],> 3
same,"Vmax, FXa generation assay; (++) means 1-2",[16],(++)
same,"Vmax, FXa generation assay; (++) means 1-2",[17],(++)
same,"Vmax, FXa generation assay",PGKLQCLASYCWLFWTGIA,> 2
same,"Vmax, FXa generation assay; (++) means 1-2",KLT-Glu-LASY-Dab-WLF,(++)
same,"Vmax, FXa generation assay; (++) means 1-2",[18],(++)
same,"Vmax, FXa generation assay",QAKMLKLTCLASYCWLFWVTRS,> 2
same,"Vmax, FXa generation assay",[19],> 3
same,"Vmax, FXa generation assay",[20],> 2
same,"Vmax, FXa generation assay",[21],> 2
same,"Vmax, FXa generation assay",[22],> 2
same,"Vmax, FXa generation assay; (++) means 1-2",[23],(++)
same,"Vmax, FXa generation assay with hFIXa",compound 23,> 3
same,"Vmax, FXa generation assay",[24],> 2
same,"Vmax, FXa generation assay; (++) means 1-2",RQLWNKLTCLASYCALIGLSGT,(++)
same,"Vmax, FXa generation assay; (++) means 1-2",[25],(++)
same,"Vmax, FXa generation assay",(PEG)27-KLTCLASYCWLF,> 2
same,"Vmax, FXa generation assay; (++) means 1-2",MeLys-LTCLASYCWLF,(++)
same,"Vmax, FXa generation assay",KLTCLASYCFLF,> 3
same,"Vmax, FXa generation assay",RRKPGKLQCLASYCWLFWTGIA,> 2
same,"Vmax, FXa generation assay",[26],> 2
same,"Vmax, FXa generation assay; (++) means 1-2",[27],(++)
same,"Vmax, FXa generation assay",[28],> 2
same,"Vmax, FXa generation assay",[29],> 3
